{"source": "the RNAGym collection of RNA variant scans (doi:10.7554/elife.90254)", "parents": {"B1": {"name": "LINE1-full (parent)", "chain": "UACGUAGGUGGUUUUCCCCUGAUAGUGCUAAGGGGGCCUGGAAGUUUGGACUGGGCAGAGCUCAACACAGCGUGGCAAAGUGGCUGUGGCUAGACUGCCUCUCUGGAUUCCUCGUCACUCAGCAGGGCAUCUCUGAGAGAAAUGCC"}}}
{"variants_of": "B1", "assay": "self-cleavage, relative activity (ratio to wild type); higher = more cleavage; in vitro, sequencing; the parent is a self-cleaving ribozyme"}
{"variant": "G35A A138G", "self-cleavage": 1.22}
{"variant": "A65U U73C", "self-cleavage": 0.16}
{"variant": "U108C G137A", "self-cleavage": 0.89}
{"variant": "U20C U109A", "self-cleavage": 1.54}
{"variant": "C3G A30U", "self-cleavage": 0.91}
{"variant": "A43G A78C", "self-cleavage": 1.74}
{"variant": "U45A A142G", "self-cleavage": 1.55}
{"variant": "U104C A107G", "self-cleavage": 1.86}
{"variant": "A124G G139A", "self-cleavage": 1.84}
{"variant": "U112C A121G", "self-cleavage": 1.71}
{"variant": "C63A A79G", "self-cleavage": 0.12}
{"variant": "U9C A140U", "self-cleavage": 1.35}
{"variant": "G82A U91C", "self-cleavage": 0.94}
{"variant": "A64G A138U", "self-cleavage": 0.27}
{"variant": "A30U A65U", "self-cleavage": 0.19}
{"variant": "U96C U108C", "self-cleavage": 0.17}
{"variant": "U1C G83A", "self-cleavage": 0.74}
{"variant": "A42G A78U", "self-cleavage": 1.66}
{"variant": "U47A C76U", "self-cleavage": 1.83}
{"variant": "U5A U81C", "self-cleavage": 0.99}
{"variant": "G27A U81C", "self-cleavage": 0.8}
{"variant": "U26A U104C", "self-cleavage": 1.28}
{"variant": "A6G G32A", "self-cleavage": 0.68}
{"variant": "U62G U73C", "self-cleavage": 0}
{"variant": "G48A U102A", "self-cleavage": 1.71}
{"variant": "U13C C37U", "self-cleavage": 1.33}
{"variant": "G4A A43G", "self-cleavage": 0.67}
{"variant": "U100G A107G", "self-cleavage": 1.31}
{"variant": "U13C C17A", "self-cleavage": 1.4}
{"variant": "U12G A141U", "self-cleavage": 1.29}
{"variant": "U96G U119A", "self-cleavage": 0.03}
{"variant": "A67G G74U", "self-cleavage": 0.54}
{"variant": "G49A A59G", "self-cleavage": 0.02}
{"variant": "U1A U130C", "self-cleavage": 1.46}
{"variant": "G53A A121U", "self-cleavage": 1.7}
{"variant": "U119C G126U", "self-cleavage": 1.67}
{"variant": "A31U U134A", "self-cleavage": 0.9}
{"variant": "G58A A129G", "self-cleavage": 0.03}
{"variant": "A22G G44A", "self-cleavage": 1.25}
{"variant": "U12G U23C", "self-cleavage": 1.32}
{"variant": "A43G U96C", "self-cleavage": 0.09}
{"variant": "A67C A140G", "self-cleavage": 0.06}
{"variant": "G27A U62C", "self-cleavage": 0.08}
{"variant": "A6C U45C", "self-cleavage": 1.18}
{"variant": "G49U A142G", "self-cleavage": 0.85}
{"variant": "C84U U96C", "self-cleavage": 0.04}
{"variant": "A65G C101U", "self-cleavage": 0.04}
{"variant": "U81A U85C", "self-cleavage": 0.16}
{"variant": "U62A U85C", "self-cleavage": 0.08}
{"variant": "U81C U96C", "self-cleavage": 0.2}
{"variant": "G86A U119A", "self-cleavage": 0.16}
{"variant": "A2G U104C", "self-cleavage": 0.84}
{"variant": "G32C G35A", "self-cleavage": 1.16}
{"variant": "G53A C146U", "self-cleavage": 1.31}
{"variant": "A67U U85A", "self-cleavage": 0.05}
{"variant": "G25A U104A", "self-cleavage": 1.03}
{"variant": "U91G G114C", "self-cleavage": 0.02}
{"variant": "A64U C110A", "self-cleavage": 0.44}
{"variant": "U26A G53A", "self-cleavage": 1.44}
{"variant": "G58A A107G", "self-cleavage": 0.04}
{"variant": "U62A A142G", "self-cleavage": 0.02}
{"variant": "U45C G144U", "self-cleavage": 1.42}
{"variant": "C38U U96A", "self-cleavage": 0.04}
{"variant": "U46A U91A", "self-cleavage": 0.62}
{"variant": "A59G A140G", "self-cleavage": 0.09}
{"variant": "U47A U62A", "self-cleavage": 0.05}
{"variant": "C51U A78U", "self-cleavage": 2.19}
{"variant": "G32C U81A", "self-cleavage": 1.9}
{"variant": "U12C A69U", "self-cleavage": 0.09}
{"variant": "G41U A121G", "self-cleavage": 1.53}
{"variant": "A2U U102C", "self-cleavage": 2.12}
{"variant": "A65U A78U", "self-cleavage": 0.2}
{"variant": "U9A G54A", "self-cleavage": 0.65}
{"variant": "A129U U143A", "self-cleavage": 1.59}
{"variant": "A79G U119G", "self-cleavage": 1.31}
{"variant": "U9C C95U", "self-cleavage": 0.19}
{"variant": "A57G A142G", "self-cleavage": 0.84}
{"variant": "G33U C116U", "self-cleavage": 1.17}
{"variant": "A57G U87A", "self-cleavage": 0.08}
{"variant": "U12G U47A", "self-cleavage": 0.95}
{"variant": "U52A A67G", "self-cleavage": 0.38}
{"variant": "U39C U91A", "self-cleavage": 0.39}
{"variant": "U15A U23C", "self-cleavage": 1.17}
{"variant": "U73A U109C", "self-cleavage": 1.05}
{"variant": "C76A A78G", "self-cleavage": 1.68}
{"variant": "U12C C19U", "self-cleavage": 1.08}
{"variant": "U112C A117G", "self-cleavage": 1.42}
{"variant": "G25C U91C", "self-cleavage": 0.97}
{"variant": "U26C U112A", "self-cleavage": 1.63}
{"variant": "G32C U115C", "self-cleavage": 1.56}
{"variant": "G44C U115A", "self-cleavage": 1.77}
{"variant": "U73A G144A", "self-cleavage": 1.4}
{"variant": "A64G A69C", "self-cleavage": 0}
{"variant": "G55U U134G", "self-cleavage": 0.15}
{"variant": "C38U G41U", "self-cleavage": 1.21}
{"variant": "A30U U102A", "self-cleavage": 0.58}
{"variant": "G33C A69G", "self-cleavage": 0.58}
{"variant": "A22G A77C", "self-cleavage": 1.09}
{"variant": "U15A A124G", "self-cleavage": 0.76}
{"variant": "U109A U119C", "self-cleavage": 1.95}
{"variant": "G32U A117G", "self-cleavage": 1.13}
{"variant": "A65G U130C", "self-cleavage": 0.1}
{"variant": "A30U A124G", "self-cleavage": 0.84}
{"variant": "A65G", "self-cleavage": 0.06}
{"variant": "U9C G54A", "self-cleavage": 0.65}
{"variant": "A6G C37A", "self-cleavage": 0.76}
{"variant": "U14C G82A", "self-cleavage": 1.35}
{"variant": "U14C U130A", "self-cleavage": 1.47}
{"variant": "U52C G125U", "self-cleavage": 1.15}
{"variant": "U20A A69U", "self-cleavage": 0.1}
{"variant": "U29C C98U", "self-cleavage": 0.42}
{"variant": "U12C G135U", "self-cleavage": 1.57}
{"variant": "A43G C146A", "self-cleavage": 1.09}
{"variant": "U5C G74U", "self-cleavage": 0.38}
{"variant": "A77U C145A", "self-cleavage": 1.75}
{"variant": "U29A A92G", "self-cleavage": 0}
{"variant": "U85A A140U", "self-cleavage": 0.09}
{"variant": "U15A A138G", "self-cleavage": 1.45}
{"variant": "A77U A94G", "self-cleavage": 0.24}
{"variant": "A22G U132G", "self-cleavage": 1.67}
{"variant": "U20G U108C", "self-cleavage": 1.97}
{"variant": "C71U A92G", "self-cleavage": 0.06}
{"variant": "G54A A57C", "self-cleavage": 0.07}
{"variant": "A57C G97U", "self-cleavage": 0.04}
{"variant": "A78G C84A", "self-cleavage": 0.09}
{"variant": "U20C G72C", "self-cleavage": 2.53}
{"variant": "A22G G89A", "self-cleavage": 0.09}
{"variant": "U45C C146U", "self-cleavage": 2.99}
{"variant": "A78U U119C", "self-cleavage": 2.05}
{"variant": "G48A U85C", "self-cleavage": 0.1}
{"variant": "A2C G93A", "self-cleavage": 0.03}
{"variant": "A31G U104C", "self-cleavage": 1.91}
{"variant": "U15C U73A", "self-cleavage": 1.68}
{"variant": "G58A U115C", "self-cleavage": 0.06}
{"variant": "A2G A94U", "self-cleavage": 0.29}
{"variant": "G70A A136U", "self-cleavage": 0.16}
{"variant": "G105A A141U", "self-cleavage": 0}
{"variant": "G114A A140U", "self-cleavage": 1.55}
{"variant": "A57G U132C", "self-cleavage": 0.86}
{"variant": "U12A U23A", "self-cleavage": 1.58}
{"variant": "G74U U91C", "self-cleavage": 0.59}
{"variant": "A43G A121G", "self-cleavage": 1.12}
{"variant": "U45C C63A", "self-cleavage": 0.11}
{"variant": "G21C U143C", "self-cleavage": 1.97}
{"variant": "U1A A42G", "self-cleavage": 1.35}
{"variant": "A57U G135U", "self-cleavage": 0.08}
{"variant": "U12G U73C", "self-cleavage": 1.54}
{"variant": "C18A U81C", "self-cleavage": 1.31}
{"variant": "G35A U73C", "self-cleavage": 1.19}
{"variant": "U1C U109C", "self-cleavage": 0.42}
{"variant": "U13C U119A", "self-cleavage": 1.15}
{"variant": "A6U U39A", "self-cleavage": 1.16}
{"variant": "U26G U62A", "self-cleavage": 0.03}
{"variant": "C19U U96A", "self-cleavage": 0.07}
{"variant": "U26C C116U", "self-cleavage": 1.48}
{"variant": "A59U A64G", "self-cleavage": 0.09}
{"variant": "U9G U119C", "self-cleavage": 1.32}
{"variant": "A121U G144A", "self-cleavage": 1.86}
{"variant": "U73A C95G", "self-cleavage": 0.06}
{"variant": "A64U A69G", "self-cleavage": 0.17}
{"variant": "G88C A140G", "self-cleavage": 0}
{"variant": "A43G A69U", "self-cleavage": 0.08}
{"variant": "G34A U46C", "self-cleavage": 1.27}
{"variant": "U5C U81A", "self-cleavage": 1.56}
{"variant": "C99A A138G", "self-cleavage": 0.88}
{"variant": "U20C C113A", "self-cleavage": 1.06}
{"variant": "U9C U29C", "self-cleavage": 1.72}
